# In patent publication US20150266962A1 (Pfizer, published 2015):
# B1: chimeric antibody ch07 (antibody, human IgG1, V domains shown)
# VH: QVQLKESGPGLVAPSQSLSINCTVSGFSLTKYGVHWIRQSPGKGLEWLGVKWAGGSTDYNSALMSRLTISKDNNKSQVFLKMNSLQSDDSAMYYCARDHRDAMDYWGQGTSVTVSS
# VL: QVVLTQSPAIMSASPGERVTMTCTASLSVSSTYLHWYHQKPGSSPKLWIYSTSNLASGVPARFSGSGSGTSYSLTISSMEAEDAATYYCHQYHRSPLTFGSGTKLELK
# notes: also called chimeric antibody 07; biotin-ch07 (biotinylated form)
# Target: T1, recombinant human IL-13 receptor alpha 2 (hIL-13-Rα2) (human, UniProt Q14627 27-343)
# T1 construct: Recombinant soluble antigen coated on ELISA plates or used in Biacore; also called rec hIL-13Rα2; rhIL-13Rα2
# T1 sequence (looked up): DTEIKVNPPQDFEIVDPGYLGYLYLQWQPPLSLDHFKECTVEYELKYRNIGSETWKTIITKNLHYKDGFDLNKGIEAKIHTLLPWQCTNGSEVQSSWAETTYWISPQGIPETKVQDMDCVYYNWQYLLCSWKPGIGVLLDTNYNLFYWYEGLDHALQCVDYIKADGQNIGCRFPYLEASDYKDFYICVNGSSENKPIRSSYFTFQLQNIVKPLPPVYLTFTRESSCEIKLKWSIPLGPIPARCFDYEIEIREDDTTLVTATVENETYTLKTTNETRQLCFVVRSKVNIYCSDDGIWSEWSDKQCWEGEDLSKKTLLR
# Experiment: competition ELISA on plate-coated recombinant hIL-13-Rα2; competitor: constant amount of biotin-ch07, detected with streptavidin-HRP
# Method: A competition ELISA was performed to examine whether ch07 and ch08 have distinct binding epitopes. Prior to the competition ELISA experiment, ch07 and ch08 were biotinylated. The EC50 of the biotinylated ch07 (biotin-ch07) and ch08 (biotin-ch08) were determined by direct standard ELISA. For the competition ELISA, recombinant hIL-13-Rα2 was coated onto 96-well plates at 50 ul of 2 μg/mL in PBS overnight at 4° C. The plates were then blocked and washed following a standard ELISA protocol. 3-fold serially diluted ch07 and ch08 (2× final concentration) were mixed with a constant amount of biotin-ch07 (FIG. 2A) or biotin-ch08 (FIG. 2B), respectively and were added to the plate and incubated for 1 hour at room temperature. The amount of biotinylated chimeric antibody bound was detected by HRP conjugated streptavidin at 1:5000 for 1 hour. […] Similar results are obtained when the same set of antibodies were used to compete with biotin-ch08 (FIG. 2B).
binder,measurement,value
B1,IC50 (read off the curve),~2 nM
